Data reported in patent US7759464.

Key:
[1] = target: monoclonal anti-idiotypic antibody MMA383; test: sandwich ELISA on wells coated with anti-idiotypic antibody MMA383, detected with anti-human IgG+A+M peroxidase
[2] = target: monoclonal anti-idiotypic antibody MMA383; test: sandwich ELISA on wells coated with anti-idiotypic antibody MMA383; evaluated at EC50, normalized on IGN311 wt.

Bottom (four parameter sigmoid fit) [1]	EC50 [1] [µg/mL]	Log EC50 [1]	Top (four parameter sigmoid fit) [1]	% (binding activity normalized on IGN311 wt.) [2] [%]	Binder
96.1	0.0638	1.8 log(ng/ml)	2060	100	IGN311 wt. (antibody, V domains shown) VH: EVQLLESGGGLVQPGGSLRLSCAASGFTFSDYYMYWVRQAPEKRLEWVAYISNGGGSSHYVDSVKGRFTISRDNSKNTLYLQMNSLRAEDTALYHCARGMDYGAWFAYWGQGTLVTVSS VL: DIVMTQSPLSLPVTPGEPASISCRSSQSIVHSNGNTYLEWYLQKPGQSPQLLISKVSNRFSGVPDRFSGSGSGTDFTLKISRVEAEDVGVYYCFQGSHVPFTFGQGTKLEIK
77	0.0688	1.84 log(ng/ml)	2100	108	IGN312 Glyco I (antibody, V domains shown, bi-sected hybrid type N-glycosylation pattern in the Fc region (constant part of the heavy chain, not in this VH piece)) VH: EVQLLESGGGLVQPGGSLRLSCAASGFTFSDYYMYWVRQAPEKRLEWVAYISNGGGSSHYVDSVKGRFTISRDNSKNTLYLQMNSLRAEDTALYHCARGMDYGAWFAYWGQGTLVTVSS VL: DIVMTQSPLSLPVTPGEPASISCRSSQSIVHSNGNTYLEWYLQKPGQSPQLLISKVSNRFSGVPDRFSGSGSGTDFTLKISRVEAEDVGVYYCFQGSHVPFTFGQGTKLEIK
